Results taken from the RNAGym collection of RNA variant scans (doi:10.1073/pnas.2313332121).
Variants at the floor of the assay were thinned out.

B1: TPR 5TU (parent)
chain: GGAUCUUCUCGAUCUAACAAAAAAGACAAAUCUGCCACAAAGCUUGAGAGCAUCUUCGGAUGCAGAGGCGGCAGCCUUCGGUGGCGCGAUAGCGCCAACGUUCUCAACUAUGACACGCAAAACGCGUGCUCCGUUGAAUGGAGUUUAUCAUG

Variants of: B1
Test: polymerase ribozyme fitness, log enrichment relative to wild type (log ratio); higher = more active; in vitro selection for triplet polymerase activity
Summary of the method: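 Mutant libraries for each subunit of a heterodimeric triplet polymerase ribozyme were made by PCR and then transcribed. Each library underwent one round of in vitro selection in triplicate: annealing with a biotinylated primer, the partner subunit and triplets, frozen incubation at −7 °C, gel excision of extended constructs, streptavidin-bead capture and RT-PCR. Input and output libraries were Illumina-sequenced, and only genotypes with ≥10 input reads and ≥1 read per output were kept. Fitness is the logarithm, base 2, of genotype enrichment over wild-type enrichment, computed from inverse-variance-weighted replicate averages.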

**Q.** Which “polymerase ribozyme fitness (log ratio)” value does the source give for G42A G83U A97U here?
**A.** ≤ -4.2

**Q.** With G46C G48A A73U U77C G80U C87U as the variant, how does the “polymerase ribozyme fitness (log ratio)” value read?
**A.** -3.85

**Q.** With G42C A60G A113U G140U as the variant, how does the “polymerase ribozyme fitness (log ratio)” value read?
**A.** -3.85

**Q.** For A47C C69A C87U G100U A121G G143U, which “polymerase ribozyme fitness (log ratio)” value is on record?
**A.** ≤ -4.2

**Q.** Which “polymerase ribozyme fitness (log ratio)” value does the source give for G46A U55A C63U U111C C125A here?
**A.** ≤ -4.2

**Q.** With U44A C131G as the variant, how does the “polymerase ribozyme fitness (log ratio)” value read?
**A.** ≤ -4.2

**Q.** For U45A U77G G86U U104A C123A, which “polymerase ribozyme fitness (log ratio)” value is on record?
**A.** ≤ -4.2

**Q.** For G42C U61A G88A C95U U104G, which “polymerase ribozyme fitness (log ratio)” value is on record?
**A.** ≤ -4.2

**Q.** Which “polymerase ribozyme fitness (log ratio)” value does the source give for C43A U61A U127C C132U U145G here?
**A.** ≤ -4.2

**Q.** Which “polymerase ribozyme fitness (log ratio)” value does the source give for G42C A89G G92A G126U G133A here?
**A.** ≤ -4.2

**Q.** Which “polymerase ribozyme fitness (log ratio)” value does the source give for G46C C75G G88A C114U here?
**A.** ≤ -4.2

**Q.** With A47C C87U C105A A119C as the variant, how does the “polymerase ribozyme fitness (log ratio)” value read?
**A.** -1.51

**Q.** For A47G C87A U90G A98G C99A G117C C149A, which “polymerase ribozyme fitness (log ratio)” value is on record?
**A.** ≤ -4.2

**Q.** Which “polymerase ribozyme fitness (log ratio)” value does the source give for U44A G84A C85G C95G C99U here?
**A.** -3.94

**Q.** Which “polymerase ribozyme fitness (log ratio)” value does the source give for A47C C72G G83U A142G here?
**A.** ≤ -4.2

**Q.** Which “polymerase ribozyme fitness (log ratio)” value does the source give for A47C G50A U53G C69G U77A C85A C103G A113G G136C here?
**A.** ≤ -4.2

**Q.** With U45A C93U as the variant, how does the “polymerase ribozyme fitness (log ratio)” value read?
**A.** -3.15

**Q.** For G42A U53A U77G A91U A115G U135G, which “polymerase ribozyme fitness (log ratio)” value is on record?
**A.** ≤ -4.2

**Q.** Which “polymerase ribozyme fitness (log ratio)” value does the source give for U44G G70C G140U here?
**A.** ≤ -4.2

**Q.** Which “polymerase ribozyme fitness (log ratio)” value does the source give for G42C U44A U90G G140U A147U here?
**A.** ≤ -4.2

**Q.** For A47G C87U U101C, which “polymerase ribozyme fitness (log ratio)” value is on record?
**A.** 0.535

**Q.** Which “polymerase ribozyme fitness (log ratio)” value does the source give for U45A G46C C85G G88C C93U A115C A150G here?
**A.** ≤ -4.2

**Q.** Which “polymerase ribozyme fitness (log ratio)” value does the source give for C43U A47C U56A U78G C87G here?
**A.** ≤ -4.2

**Q.** With U45C G46A U61G G62C C76A as the variant, how does the “polymerase ribozyme fitness (log ratio)” value read?
**A.** ≤ -4.2

**Q.** Which “polymerase ribozyme fitness (log ratio)” value does the source give for G42U G50A C118U A122C here?
**A.** ≤ -4.2

**Q.** Which “polymerase ribozyme fitness (log ratio)” value does the source give for U44A G50C here?
**A.** ≤ -4.2

**Q.** For A47C A150U, which “polymerase ribozyme fitness (log ratio)” value is on record?
**A.** -0.247

**Q.** Which “polymerase ribozyme fitness (log ratio)” value does the source give for U44G G141A here?
**A.** -4.12

**Q.** For U45A A60G, which “polymerase ribozyme fitness (log ratio)” value is on record?
**A.** -2.47

**Q.** For C43U U61G G94U C116U U144G C149G, which “polymerase ribozyme fitness (log ratio)” value is on record?
**A.** ≤ -4.2

**Q.** For U44A G48C G59A U82C C116G C123U U134C, which “polymerase ribozyme fitness (log ratio)” value is on record?
**A.** ≤ -4.2

**Q.** With U44A G92A C93A G141C as the variant, how does the “polymerase ribozyme fitness (log ratio)” value read?
**A.** ≤ -4.2

**Q.** Which “polymerase ribozyme fitness (log ratio)” value does the source give for U44G G70C G83A C116A G152A here?
**A.** ≤ -4.2

**Q.** Which “polymerase ribozyme fitness (log ratio)” value does the source give for U45G C114U A119U here?
**A.** -2.4

**Q.** With C43G C57A A60U G141C as the variant, how does the “polymerase ribozyme fitness (log ratio)” value read?
**A.** -4.18

**Q.** For G46A G74C, which “polymerase ribozyme fitness (log ratio)” value is on record?
**A.** ≤ -4.2

**Q.** Which “polymerase ribozyme fitness (log ratio)” value does the source give for A47G U61G A142G here?
**A.** -2.82

**Q.** Which “polymerase ribozyme fitness (log ratio)” value does the source give for G46C A64G A91C here?
**A.** ≤ -4.2

**Q.** With U45A C85U C118G A138U as the variant, how does the “polymerase ribozyme fitness (log ratio)” value read?
**A.** -4.16

**Q.** Which “polymerase ribozyme fitness (log ratio)” value does the source give for A47G G68A C72U G81A A89G U148A here?
**A.** ≤ -4.2

**Q.** For U45A A47C C54A C57A U90C G140C, which “polymerase ribozyme fitness (log ratio)” value is on record?
**A.** ≤ -4.2

**Q.** Which “polymerase ribozyme fitness (log ratio)” value does the source give for G42A U56A G67U G94A here?
**A.** ≤ -4.2

**Q.** For U45A C85G, which “polymerase ribozyme fitness (log ratio)” value is on record?
**A.** -3.95

**Q.** For U44A G62A G84A U134A, which “polymerase ribozyme fitness (log ratio)” value is on record?
**A.** ≤ -4.2

**Q.** With G46A A91G G136U as the variant, how does the “polymerase ribozyme fitness (log ratio)” value read?
**A.** ≤ -4.2

**Q.** Which “polymerase ribozyme fitness (log ratio)” value does the source give for C43A C87A A89G C93U here?
**A.** ≤ -4.2

**Q.** With A47C U82G A142C as the variant, how does the “polymerase ribozyme fitness (log ratio)” value read?
**A.** -2.54

**Q.** Which “polymerase ribozyme fitness (log ratio)” value does the source give for G46C C149U here?
**A.** -2.58

**Q.** With A47G G59A as the variant, how does the “polymerase ribozyme fitness (log ratio)” value read?
**A.** 0.381

**Q.** Which “polymerase ribozyme fitness (log ratio)” value does the source give for C43A A115U C118G here?
**A.** ≤ -4.2

**Q.** With U45A G83C C105U C131G as the variant, how does the “polymerase ribozyme fitness (log ratio)” value read?
**A.** ≤ -4.2

**Q.** Which “polymerase ribozyme fitness (log ratio)” value does the source give for U45A G50A U55G C87G G94C here?
**A.** ≤ -4.2

**Q.** With U44A C85G U90C U104G as the variant, how does the “polymerase ribozyme fitness (log ratio)” value read?
**A.** ≤ -4.2

**Q.** Which “polymerase ribozyme fitness (log ratio)” value does the source give for U44A A52C here?
**A.** -3.94

**Q.** Which “polymerase ribozyme fitness (log ratio)” value does the source give for C43G G86A here?
**A.** ≤ -4.2

**Q.** Which “polymerase ribozyme fitness (log ratio)” value does the source give for G46A G70U C85G here?
**A.** ≤ -4.2

**Q.** With G42C C95A C99G A107U as the variant, how does the “polymerase ribozyme fitness (log ratio)” value read?
**A.** ≤ -4.2

**Q.** For A47C C57A G84A U101C, which “polymerase ribozyme fitness (log ratio)” value is on record?
**A.** -0.765

**Q.** Which “polymerase ribozyme fitness (log ratio)” value does the source give for U45C G84A here?
**A.** -1.08

**Q.** Which “polymerase ribozyme fitness (log ratio)” value does the source give for G42C C51G U56A G83A C105U A122U U148A here?
**A.** ≤ -4.2

**Q.** For G42A G50A C57U G67C C79U G83U C93U, which “polymerase ribozyme fitness (log ratio)” value is on record?
**A.** ≤ -4.2

**Q.** For U45G C79G G83U C85G U102C, which “polymerase ribozyme fitness (log ratio)” value is on record?
**A.** ≤ -4.2

**Q.** For U44A G68U G92U A98G C99G, which “polymerase ribozyme fitness (log ratio)” value is on record?
**A.** ≤ -4.2

**Q.** Which “polymerase ribozyme fitness (log ratio)” value does the source give for G42C C116G A120U A138G G141U G143A here?
**A.** ≤ -4.2

**Q.** Which “polymerase ribozyme fitness (log ratio)” value does the source give for U45G A52U U55A A73U C85U G117A C149A here?
**A.** ≤ -4.2

**Q.** Which “polymerase ribozyme fitness (log ratio)” value does the source give for G46A A52C U139G here?
**A.** -3.91

**Q.** For G46A G50C A52C C69A, which “polymerase ribozyme fitness (log ratio)” value is on record?
**A.** ≤ -4.2

**Q.** Which “polymerase ribozyme fitness (log ratio)” value does the source give for C43U G86U C125A here?
**A.** ≤ -4.2

**Q.** With A47C U53A C85G U139A as the variant, how does the “polymerase ribozyme fitness (log ratio)” value read?
**A.** ≤ -4.2

**Q.** For C43G A60C G62A C96U U102G, which “polymerase ribozyme fitness (log ratio)” value is on record?
**A.** ≤ -4.2

**Q.** For U45G C85G C93U, which “polymerase ribozyme fitness (log ratio)” value is on record?
**A.** ≤ -4.2

**Q.** For G46C G50C G59U C118U G126C, which “polymerase ribozyme fitness (log ratio)” value is on record?
**A.** ≤ -4.2

**Q.** For U45G G50A C54U A120C G126C, which “polymerase ribozyme fitness (log ratio)” value is on record?
**A.** ≤ -4.2

**Q.** Which “polymerase ribozyme fitness (log ratio)” value does the source give for G42C U55A G92C A115U A150U here?
**A.** ≤ -4.2

**Q.** Which “polymerase ribozyme fitness (log ratio)” value does the source give for G46U G83U A119U C123A U145C here?
**A.** -3.34

**Q.** For G46C C54A U61A C63U G70A G84A C93U G100A C116G, which “polymerase ribozyme fitness (log ratio)” value is on record?
**A.** ≤ -4.2

**Q.** For G46A G83A, which “polymerase ribozyme fitness (log ratio)” value is on record?
**A.** -0.911

**Q.** Which “polymerase ribozyme fitness (log ratio)” value does the source give for U44A U55A C69G G86U G141A here?
**A.** -4.2

**Q.** With C43A G50A A106G as the variant, how does the “polymerase ribozyme fitness (log ratio)” value read?
**A.** ≤ -4.2

**Q.** Which “polymerase ribozyme fitness (log ratio)” value does the source give for G42A U56A C95U U111G here?
**A.** -4

**Q.** For G46U A60U G92C U139G, which “polymerase ribozyme fitness (log ratio)” value is on record?
**A.** ≤ -4.2

**Q.** With G46C U61A C63U U82A A122G as the variant, how does the “polymerase ribozyme fitness (log ratio)” value read?
**A.** ≤ -4.2

**Q.** With C43G G80U G84A C93A U134C as the variant, how does the “polymerase ribozyme fitness (log ratio)” value read?
**A.** ≤ -4.2

**Q.** With G42C A47G G88C as the variant, how does the “polymerase ribozyme fitness (log ratio)” value read?
**A.** ≤ -4.2
